Here are results for two molecules from publication PMC5937737, “RIT1 controls actin dynamics via complex formation with RAC1/CDC42 and PAK1” (PLoS Genetics, 2018).

Holding throughout (test): pull-down; in-vitro binding assay: GST fusion protein (1 μM) on glutathione agarose mixed with His-RIT1 (0.5 μM or a concentration series) loaded with GDP or GTPγS; 20 mM Tris-HCl, 100 mM NaCl, 0.1% Triton X-100, 1 mM DTT, 100 mM MgCl2; 30 min at room temperature; anti-His immunoblot
Holding throughout (conditions): both partners purified

Assay [1] addresses T1, His-RIT1^WT (amino acids 1-201) (human, UniProt Q92963-1 1-201).
T1 construct: RIT1, human; loaded with GDP or non-hydrolyzable GTPγS before the assay; also called His-tagged RIT1; recombinant His-tagged RIT1 wildtype; source: E. coli BL21 (pET151/D-TOPO-RIT1^WT), purified

Assay [2] deals with T2, His-RIT1^F82L (amino acids 1-201) (human, UniProt Q92963-1 1-201, F82L).
T2 construct: RIT1, human; Noonan syndrome-associated substitution in switch II; loaded with GDP or non-hydrolyzable GTPγS before the assay; also called RIT1 mutant p.F82L (recombinant); source: E. coli BL21 (pET151/D-TOPO-RIT1^F82L), purified

Assay [3] has as its target T3, His-RIT1^A57G (amino acids 1-201) (human, UniProt Q92963-1 1-201, A57G).
T3 construct: RIT1, human; Noonan syndrome-associated substitution in switch I; loaded with GDP or non-hydrolyzable GTPγS before the assay; also called RIT1 mutant p.A57G (recombinant); source: E. coli BL21 (pET151/D-TOPO-RIT1^A57G), purified

T1 sequence (Q92963 1-201): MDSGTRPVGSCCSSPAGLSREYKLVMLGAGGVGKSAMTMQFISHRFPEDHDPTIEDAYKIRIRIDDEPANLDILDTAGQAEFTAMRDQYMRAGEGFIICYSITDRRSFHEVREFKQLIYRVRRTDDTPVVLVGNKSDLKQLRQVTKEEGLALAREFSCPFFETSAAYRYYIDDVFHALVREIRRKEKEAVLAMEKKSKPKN
T3 sequence (Q92963 1-201 A57G): as the sequence (Q92963 1-201) above, with A57G counted along it
T2 sequence (Q92963 1-201 F82L): as the sequence (Q92963 1-201) above, with F82L counted along it

B1: GST-CDC42 (amino acids 1-178) (domain or fragment)
chain: not shown
notes: CDC42, amino acids 1-178; loaded with GDP or GTPγS before the assay; source: E. coli BL21 (pGEX-4T3-CDC42), isolated, coupled to glutathione agarose beads
In the case of B1, the binding result in assay [1] was “binds”.

B2: GST-PAK[CRIB] (domain or fragment, UniProt Q13153 58-141, looked up)
chain: ILPGDKTNKKKEKERPEISLPSDFEHTIHVGFDAVTGEFTGMPEQWARLLQTSNITKSEQKKNPQAVLDVLEFYNSKKTSNSQK
notes: PAK1, CRIB domain, amino acids 58-141; source: E. coli BL21 (pGEX-2TK-PAK[CRIB]), isolated, coupled to glutathione agarose beads
With B2, the binding result in assay [2], in assay [1] and in assay [3] was “binds” each time.
